Reference: publication PMC8809517, “Cofactor-independent RNA editing by a synthetic S-type PPR protein”

T1: GFP-9S library array, motif 4 ND N98T;D124V (synthetic construct, N98T;D124V)
T1 chain: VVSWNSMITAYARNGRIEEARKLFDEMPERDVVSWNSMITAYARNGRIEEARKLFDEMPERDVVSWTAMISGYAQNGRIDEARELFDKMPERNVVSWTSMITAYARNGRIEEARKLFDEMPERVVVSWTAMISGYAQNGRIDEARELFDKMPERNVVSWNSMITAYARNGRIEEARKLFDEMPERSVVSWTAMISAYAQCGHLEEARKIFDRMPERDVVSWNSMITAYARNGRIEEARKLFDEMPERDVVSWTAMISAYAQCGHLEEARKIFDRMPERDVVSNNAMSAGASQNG

T2: GFP-9S library array, motif 4 ND N98T;D124W (synthetic construct, N98T;D124W)
T2 chain: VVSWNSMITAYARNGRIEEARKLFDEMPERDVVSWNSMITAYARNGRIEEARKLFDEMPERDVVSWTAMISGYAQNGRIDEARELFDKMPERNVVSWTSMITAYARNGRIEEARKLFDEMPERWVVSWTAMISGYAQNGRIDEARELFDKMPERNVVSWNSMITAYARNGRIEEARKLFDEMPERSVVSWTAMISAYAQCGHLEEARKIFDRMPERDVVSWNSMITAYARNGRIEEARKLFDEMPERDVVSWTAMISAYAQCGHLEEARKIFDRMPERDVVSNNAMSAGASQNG

T3: GFP-9S library array, motif 4 ND N98G;D124W (synthetic construct, N98G;D124W)
T3 chain: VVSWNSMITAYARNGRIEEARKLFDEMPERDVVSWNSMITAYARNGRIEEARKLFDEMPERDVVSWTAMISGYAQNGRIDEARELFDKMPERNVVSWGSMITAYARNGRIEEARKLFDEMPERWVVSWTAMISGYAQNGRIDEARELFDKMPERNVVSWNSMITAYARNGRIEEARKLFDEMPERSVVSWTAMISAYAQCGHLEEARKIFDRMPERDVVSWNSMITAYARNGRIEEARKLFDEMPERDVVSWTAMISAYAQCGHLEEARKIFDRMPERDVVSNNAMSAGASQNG

T4: GFP-9S library array, motif 4 ND N98E;D124K (synthetic construct, N98E;D124K)
T4 chain: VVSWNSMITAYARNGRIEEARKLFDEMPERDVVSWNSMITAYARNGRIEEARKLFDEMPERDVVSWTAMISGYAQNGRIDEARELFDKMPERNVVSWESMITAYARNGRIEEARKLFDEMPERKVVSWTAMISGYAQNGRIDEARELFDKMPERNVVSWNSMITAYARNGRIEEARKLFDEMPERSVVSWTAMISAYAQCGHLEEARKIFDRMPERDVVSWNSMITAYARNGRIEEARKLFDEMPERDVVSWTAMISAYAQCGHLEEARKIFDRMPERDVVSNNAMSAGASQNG

T5: GFP-9S library array, motif 4 ND N98D;D124A (synthetic construct, N98D;D124A)
T5 chain: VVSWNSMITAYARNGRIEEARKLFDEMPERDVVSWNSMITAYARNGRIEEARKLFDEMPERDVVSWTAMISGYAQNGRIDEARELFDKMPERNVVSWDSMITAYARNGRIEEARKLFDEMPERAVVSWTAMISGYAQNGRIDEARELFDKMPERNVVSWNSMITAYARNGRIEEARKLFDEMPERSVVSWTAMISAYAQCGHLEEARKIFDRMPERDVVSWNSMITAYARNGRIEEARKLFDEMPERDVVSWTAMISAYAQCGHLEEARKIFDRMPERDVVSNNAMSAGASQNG


Key:
Assay in all cases: high-throughput RNA pulldown from lysate on Ni-NTA beads; HRP: 50 mM Tris pH 8, 150 mM NaCl, 1 mM beta-mercaptoethanol, 50 ug/ml BSA, 3 ug/ml yeast RNA, 0.5% heparin; ITC and FP: Tris pH 8, 200 mM KCl, 5% glycerol; MST: 50 mM Tris pH 8, 200 mM NaCl, 1 mM DTT, BSA, heparin, 0.05% Tween 20
Conditions in all cases: tags: N-terminal His-eGFP
[1] = biological target: T1, GFP-9S library array, motif 4 ND …
[2] = biological target: T2, GFP-9S library array, motif 4 ND …
[3] = biological target: T3, GFP-9S library array, motif 4 ND …
[4] = biological target: T4, GFP-9S library array, motif 4 ND …
[5] = biological target: T5, GFP-9S library array, motif 4 ND …

Row | Binder | Kd ([1]; label: 5' IRDye 800CW) [nM] | Kd ([2]; label: 5' IRDye 800CW) [nM] | Kd ([3]; label: 5' IRDye 800CW) [nM] | Kd ([4]; label: 5' IRDye 800CW) [nM] | Kd ([5]; label: 5' IRDye 800CW) [nM] | Kd ([1]; label: 5' Cy5) [nM] | Kd ([2]; label: 5' Cy5) [nM] | Kd ([3]; label: 5' Cy5) [nM] | Kd ([4]; label: 5' Cy5) [nM] | Kd ([5]; label: 5' Cy5) [nM]
1 | AUUAAACGUGA (ssRNA) [IR-rpoA-A] | 31.1 | 125 | 74.5 | 312 | 233 |  |  |  |  | 
2 | AUUACACGUGA (ssRNA) [Cy5-rpoA] |  |  |  |  |  | 95.8 | 81.5 | 49.7 | 124 | 103
3 | AUUAGACGUGA (ssRNA) [Cy5-rpoA-G] |  |  |  |  |  | 85.6 | 71.6 | 69.1 | 155 | 114
4 | AUUAUACGUGA (ssRNA) [IR-rpoA-U] | 140 | 150 | 67 | 267 | 174 |  |  |  |  | 
